The target in experiment [1] is T1, human CD3 epsilon (human, UniProt P07766 23-126, limits assumed).
T1 construct: also called huCD3e
Description: Octet, crude lysate. The text has this: To achieve this, Pool 1 was created, which included 74 paTCE molecules, each containing PSMA.5 and one of the 74 CD3.23 mutation variants. Single mutations were chosen based on analyses including CD3.23 PTE score analysis (using internal PTE algorithm v12) and structural analysis. Structural considerations included: possible contact disruption, anticipated steric clashes, side chain charge maintenance and possible pockets filling. Stability and affinity of the individually expressed molecules in the form of crude lysate was evaluated by Octet (ForteBio).
In general terms: In BLI a coated tip is dipped into the sample, and binding shifts an interference pattern.

Experiment [2] has as its target T2, human PSMA (human, UniProt Q04609 44-750, limits assumed).
T2 construct: also called huPSMA; hPSMA
In words: binding screen.

As a reminder, the Kd is the concentration at which binding is half-saturated. Higher therefore signals a looser complex.

T2 sequence (Q04609 44-750 limits assumed): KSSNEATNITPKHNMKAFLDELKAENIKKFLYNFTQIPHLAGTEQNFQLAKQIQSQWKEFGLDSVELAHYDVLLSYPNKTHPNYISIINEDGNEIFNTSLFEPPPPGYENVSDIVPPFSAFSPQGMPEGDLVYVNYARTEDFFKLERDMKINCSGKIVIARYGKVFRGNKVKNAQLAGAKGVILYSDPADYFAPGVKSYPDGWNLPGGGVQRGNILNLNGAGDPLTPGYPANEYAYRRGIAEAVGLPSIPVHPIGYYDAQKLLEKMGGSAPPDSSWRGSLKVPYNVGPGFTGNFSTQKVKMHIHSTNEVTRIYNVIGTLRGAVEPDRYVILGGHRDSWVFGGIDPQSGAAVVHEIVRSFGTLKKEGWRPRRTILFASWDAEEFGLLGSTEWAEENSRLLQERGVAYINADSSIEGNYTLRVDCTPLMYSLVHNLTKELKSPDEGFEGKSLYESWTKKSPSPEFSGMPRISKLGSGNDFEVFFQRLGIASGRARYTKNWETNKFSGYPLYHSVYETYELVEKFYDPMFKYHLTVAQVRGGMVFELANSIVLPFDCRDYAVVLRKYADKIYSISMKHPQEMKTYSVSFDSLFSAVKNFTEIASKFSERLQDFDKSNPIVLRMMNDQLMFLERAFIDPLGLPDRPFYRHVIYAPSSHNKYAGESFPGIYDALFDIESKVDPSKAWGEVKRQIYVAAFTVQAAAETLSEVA
T1 sequence (P07766 23-126 limits assumed): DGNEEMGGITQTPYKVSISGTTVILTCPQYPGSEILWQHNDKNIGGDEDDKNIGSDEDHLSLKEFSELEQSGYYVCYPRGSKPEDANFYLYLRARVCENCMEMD

B1: CD3.23-D (bispecific antibody, V domains shown)
VH: EVQLLESGGGIVQPGGSLKLSCAASGFTFNTYAMNWVRQAPGKGLEWVARIRSKYNNYATYYADSVKDRFTISRDDSKNTVYLQMNNLKTEDTAVYYCVRHENFGNSYVSWFAHWGQGTLVTVSS
VL: ELVVTQEPSLTVSPGGTVTLTCRSSNGAVTSSNYANWVQQKPGQAPRGLIGGTNKRAPGTPARFSGSLLGGKAALTLSGVQPEDEAVYYCALWYPNLWVFGGGTKLTVL
notes: paTCE with PSMA.5; also called AC3366; WT
For B1, the Kd in experiment [1] worked out at 14 nM.

B2: CD3.44 (bispecific antibody, V domains shown)
VH: EVQLLESGGGIVQPGGSLKLSCAASGFTFNTYAMNWVRQAPGKGLEWTARIRSKYNNYATYYADSVKDRFTISRDDSKNTVYLQMNNLKTEDTAVYYCVRHENFGNSYVSWFAHWGQGTLVTVSS
VL: ELVVTQEPSLTVSPGGTVTLTCRSSNGAVTSSNYANWVQQKPGQAPRGLIGGTNKRAPGTPARFSGSLLGGKAALTLSGVQPEDEAVYYCALWYPNLWVFGGGTKLTVL
notes: paTCE with PSMA.5; also called AC3373; V48T
Molecule B2 returned a Kd in experiment [1] of 5.7 nM.

B3: CD3.70 (bispecific antibody, V domains shown)
VH: EVQLLESGGGIVQPGGSLKLSCAASGFTFNTYAMNWVRQAPGKGLEWVARIRSKRNNYATYYADSVKDRFTISRDDSKNTVYLQMNNLKTEDTAVYYCVRHENFGNSYVSWFAHWGQGTLVTVSS
VL: ELVVTQEPSLTVSPGGTVTLTCRSSNGAVTSSNYANWVQQKPGQAPRGLIGGTNKRAPGTPARFSGSLLGGKAALTLSGVQPEDEAVYYCALWYPNLWVFGGGTKLTVL
notes: paTCE with PSMA.5; also called AC3399; Y52cR
Consider B3, for which binding in experiment [1] was put at a Kd of 3.8 nM. Against the preceding molecule, the Kd is about 1.5-fold lower.

B4: CD3.41 (bispecific antibody, V domains shown)
VH: EVQLLESGGGIVQPGGSLKLSCAASGFTFNTYAMNWVRQAPGKGLEWEARIRSKYNNYATYYADSVKDRFTISRDDSKNTVYLQMNNLKTEDTAVYYCVRHENFGNSYVSWFAHWGQGTLVTVSS
VL: ELVVTQEPSLTVSPGGTVTLTCRSSNGAVTSSNYANWVQQKPGQAPRGLIGGTNKRAPGTPARFSGSLLGGKAALTLSGVQPEDEAVYYCALWYPNLWVFGGGTKLTVL
notes: paTCE with PSMA.5; also called AC3370; V48E
Consider B4, for which binding in experiment [1] was characterised by a dissociation constant (Kd) of 165 nM.

B5: CD3.60 (bispecific antibody, V domains shown)
VH: EVQLLESGGGIVQPGGSLKLSCAASGFTFNTYAMNWVRQAPGKGLEWVARIQSKYNNYATYYADSVKDRFTISRDDSKNTVYLQMNNLKTEDTAVYYCVRHENFGNSYVSWFAHWGQGTLVTVSS
VL: ELVVTQEPSLTVSPGGTVTLTCRSSNGAVTSSNYANWVQQKPGQAPRGLIGGTNKRAPGTPARFSGSLLGGKAALTLSGVQPEDEAVYYCALWYPNLWVFGGGTKLTVL
notes: paTCE with PSMA.5; also called AC3389; R52Q
B5 returned a Kd in experiment [1] of 434 nM.

B6: CD3.42 (bispecific antibody, V domains shown)
VH: EVQLLESGGGIVQPGGSLKLSCAASGFTFNTYAMNWVRQAPGKGLEWGARIRSKYNNYATYYADSVKDRFTISRDDSKNTVYLQMNNLKTEDTAVYYCVRHENFGNSYVSWFAHWGQGTLVTVSS
VL: ELVVTQEPSLTVSPGGTVTLTCRSSNGAVTSSNYANWVQQKPGQAPRGLIGGTNKRAPGTPARFSGSLLGGKAALTLSGVQPEDEAVYYCALWYPNLWVFGGGTKLTVL
notes: paTCE with PSMA.5; also called AC3371; V48G
In turn, B6 had a Kd in experiment [1] of 71.5 nM. This Kd lies about 6.1-fold lower than the previous one.

B7: CD3.56 (bispecific antibody, V domains shown)
VH: EVQLLESGGGIVQPGGSLKLSCAASGFTFNTYAMNWVRQAPGKGLEWVARTRSKYNNYATYYADSVKDRFTISRDDSKNTVYLQMNNLKTEDTAVYYCVRHENFGNSYVSWFAHWGQGTLVTVSS
VL: ELVVTQEPSLTVSPGGTVTLTCRSSNGAVTSSNYANWVQQKPGQAPRGLIGGTNKRAPGTPARFSGSLLGGKAALTLSGVQPEDEAVYYCALWYPNLWVFGGGTKLTVL
notes: paTCE with PSMA.5; also called AC3385; I51T
Regarding B7, the Kd in experiment [1] was 425 nM.

B8: CD3.67 (bispecific antibody, V domains shown)
VH: EVQLLESGGGIVQPGGSLKLSCAASGFTFNTYAMNWVRQAPGKGLEWVARIRTKYNNYATYYADSVKDRFTISRDDSKNTVYLQMNNLKTEDTAVYYCVRHENFGNSYVSWFAHWGQGTLVTVSS
VL: ELVVTQEPSLTVSPGGTVTLTCRSSNGAVTSSNYANWVQQKPGQAPRGLIGGTNKRAPGTPARFSGSLLGGKAALTLSGVQPEDEAVYYCALWYPNLWVFGGGTKLTVL
notes: paTCE with PSMA.5; also called AC3396; S52aT
Molecule B8 came in with a Kd in experiment [1] of 4.8 nM.

B9: CD3.68 (bispecific antibody, V domains shown)
VH: EVQLLESGGGIVQPGGSLKLSCAASGFTFNTYAMNWVRQAPGKGLEWVARIRSPYNNYATYYADSVKDRFTISRDDSKNTVYLQMNNLKTEDTAVYYCVRHENFGNSYVSWFAHWGQGTLVTVSS
VL: ELVVTQEPSLTVSPGGTVTLTCRSSNGAVTSSNYANWVQQKPGQAPRGLIGGTNKRAPGTPARFSGSLLGGKAALTLSGVQPEDEAVYYCALWYPNLWVFGGGTKLTVL
notes: paTCE with PSMA.5; also called AC3397; K52bP
Turning to B9, the dissociation constant (Kd) in experiment [1] stood at 51 nM. Against the preceding molecule, the Kd is about 11-fold higher.

B10: CD3.39 (bispecific antibody, V domains shown)
VH: EVQLLESGGGIVQPGGSLKLSCAASGFTFNTYAMNWVRQAPGKGLEEVARIRSKYNNYATYYADSVKDRFTISRDDSKNTVYLQMNNLKTEDTAVYYCVRHENFGNSYVSWFAHWGQGTLVTVSS
VL: ELVVTQEPSLTVSPGGTVTLTCRSSNGAVTSSNYANWVQQKPGQAPRGLIGGTNKRAPGTPARFSGSLLGGKAALTLSGVQPEDEAVYYCALWYPNLWVFGGGTKLTVL
notes: paTCE with PSMA.5; also called AC3368; W47E
B10 returned an equilibrium dissociation constant (Kd) in experiment [1] of 18.1 nM.

B11: CD3.40 (bispecific antibody, V domains shown)
VH: EVQLLESGGGIVQPGGSLKLSCAASGFTFNTYAMNWVRQAPGKGLEWAARIRSKYNNYATYYADSVKDRFTISRDDSKNTVYLQMNNLKTEDTAVYYCVRHENFGNSYVSWFAHWGQGTLVTVSS
VL: ELVVTQEPSLTVSPGGTVTLTCRSSNGAVTSSNYANWVQQKPGQAPRGLIGGTNKRAPGTPARFSGSLLGGKAALTLSGVQPEDEAVYYCALWYPNLWVFGGGTKLTVL
notes: paTCE with PSMA.5; also called AC3369; V48A
In turn, B11 came in with a dissociation constant Kd in experiment [1] of 8.3 nM. Against the preceding molecule, the Kd is about 2.2-fold lower.

B12: CD3.71 (bispecific antibody, V domains shown)
VH: EVQLLESGGGIVQPGGSLKLSCAASGFTFNTYAMNWVRQAPGKGLEWVARIRSKGNNYATYYADSVKDRFTISRDDSKNTVYLQMNNLKTEDTAVYYCVRHENFGNSYVSWFAHWGQGTLVTVSS
VL: ELVVTQEPSLTVSPGGTVTLTCRSSNGAVTSSNYANWVQQKPGQAPRGLIGGTNKRAPGTPARFSGSLLGGKAALTLSGVQPEDEAVYYCALWYPNLWVFGGGTKLTVL
notes: paTCE with PSMA.5; also called AC3400; Y52cG
Regarding B12, binding in experiment [1] was put at a Kd of 20.1 nM.

B13: CD3.69 (bispecific antibody, V domains shown)
VH: EVQLLESGGGIVQPGGSLKLSCAASGFTFNTYAMNWVRQAPGKGLEWVARIRSKANNYATYYADSVKDRFTISRDDSKNTVYLQMNNLKTEDTAVYYCVRHENFGNSYVSWFAHWGQGTLVTVSS
VL: ELVVTQEPSLTVSPGGTVTLTCRSSNGAVTSSNYANWVQQKPGQAPRGLIGGTNKRAPGTPARFSGSLLGGKAALTLSGVQPEDEAVYYCALWYPNLWVFGGGTKLTVL
notes: paTCE with PSMA.5; also called AC3398; Y52cA
B13 returned a Kd in experiment [1] of 11.5 nM. This Kd is about 1.7-fold lower than that of the molecule before.

B14: CD3.45 (bispecific antibody, V domains shown)
VH: EVQLLESGGGIVQPGGSLKLSCAASGFTFNTYAMNWVRQAPGKGLEWWARIRSKYNNYATYYADSVKDRFTISRDDSKNTVYLQMNNLKTEDTAVYYCVRHENFGNSYVSWFAHWGQGTLVTVSS
VL: ELVVTQEPSLTVSPGGTVTLTCRSSNGAVTSSNYANWVQQKPGQAPRGLIGGTNKRAPGTPARFSGSLLGGKAALTLSGVQPEDEAVYYCALWYPNLWVFGGGTKLTVL
notes: paTCE with PSMA.5; also called AC3374; V48W
Regarding B14, binding in experiment [1] was characterised by a dissociation constant (Kd) of 34300 nM.

B15: CD3.54 (bispecific antibody, V domains shown)
VH: EVQLLESGGGIVQPGGSLKLSCAASGFTFNTYAMNWVRQAPGKGLEWVARARSKYNNYATYYADSVKDRFTISRDDSKNTVYLQMNNLKTEDTAVYYCVRHENFGNSYVSWFAHWGQGTLVTVSS
VL: ELVVTQEPSLTVSPGGTVTLTCRSSNGAVTSSNYANWVQQKPGQAPRGLIGGTNKRAPGTPARFSGSLLGGKAALTLSGVQPEDEAVYYCALWYPNLWVFGGGTKLTVL
notes: paTCE with PSMA.5; also called AC3383; I51A
In turn, B15 had a Kd in experiment [1] of 1180 nM.

B16: CD3.43 (bispecific antibody, V domains shown)
VH: EVQLLESGGGIVQPGGSLKLSCAASGFTFNTYAMNWVRQAPGKGLEWSARIRSKYNNYATYYADSVKDRFTISRDDSKNTVYLQMNNLKTEDTAVYYCVRHENFGNSYVSWFAHWGQGTLVTVSS
VL: ELVVTQEPSLTVSPGGTVTLTCRSSNGAVTSSNYANWVQQKPGQAPRGLIGGTNKRAPGTPARFSGSLLGGKAALTLSGVQPEDEAVYYCALWYPNLWVFGGGTKLTVL
notes: paTCE with PSMA.5; also called AC3372; V48S
In experiment [1], B16 displayed a Kd of 11.2 nM.

B17: CD3.38 (bispecific antibody, V domains shown)
VH: EVQLLESGGGIVQPGGSLKLSCAASGFTFNTYAMNWVRQAPGKGLEDVARIRSKYNNYATYYADSVKDRFTISRDDSKNTVYLQMNNLKTEDTAVYYCVRHENFGNSYVSWFAHWGQGTLVTVSS
VL: ELVVTQEPSLTVSPGGTVTLTCRSSNGAVTSSNYANWVQQKPGQAPRGLIGGTNKRAPGTPARFSGSLLGGKAALTLSGVQPEDEAVYYCALWYPNLWVFGGGTKLTVL
notes: paTCE with PSMA.5; also called AC3367; W47D
Take B17: the dissociation constant Kd in experiment [1] is 40.2 nM.

B18: CD3.48 (bispecific antibody, V domains shown)
VH: EVQLLESGGGIVQPGGSLKLSCAASGFTFNTYAMNWVRQAPGKGLEWVGRIRSKYNNYATYYADSVKDRFTISRDDSKNTVYLQMNNLKTEDTAVYYCVRHENFGNSYVSWFAHWGQGTLVTVSS
VL: ELVVTQEPSLTVSPGGTVTLTCRSSNGAVTSSNYANWVQQKPGQAPRGLIGGTNKRAPGTPARFSGSLLGGKAALTLSGVQPEDEAVYYCALWYPNLWVFGGGTKLTVL
notes: paTCE with PSMA.5; also called AC3377; A49G
In experiment [1], B18 had a dissociation constant (Kd) of 4.5 nM.

B19: PSMA.358 (bispecific antibody, V domains shown)
VH: QVQLVESGGGVVQPGRSLRLSCAASGRTFGIYVWGWFRQAPGKEREFVGAMSWSGSNRKVSDSVKGRFTISRDNSKNTLYLQMNSLRAEDTAVYFCGGSNKLYGRTWYDFNESDYWGQGTQVTVSS
notes: TCE with CD3.23; also called AC3760
The molecule B19 had an equilibrium dissociation constant (Kd) in experiment [2] of 6.5 nM.

B20: PSMA.359 (bispecific antibody, V domains shown)
VH: QVQLVESGGGVVQPGRSLRLSCAASGRTFGIYVWGWFRQAPGKEREFVGAMSWSGSNRKVSDSVKGRFTISRDNSKNTLYLQMNSLRAEDTAVRYCAGSNKLYGRTWYDFNESDYWGQGTQVTVSS
notes: TCE with CD3.23; also called AC3761
As for B20, the binding result in experiment [2] is on record as “no binding”.

B21: PSMA.360 (bispecific antibody, V domains shown)
VH: QVQLVESGGGVVQPGRSLRLSCAASGRTFGIYVWGWFRQAPGKEREFVGAMSWSGSNRKVSDSVKGRFTISRDNSKNTLYLQMNSLRAEDTAVNYCAGSNKLYGRTWYDFNESDYWGQGTQVTVSS
notes: TCE with CD3.23; also called AC3762
For the molecule B21, the binding result in experiment [2] was “no binding”.

The values are drawn from US20260055205A1 (published 2026).
